Where a chain is given by its changes, count along the chain named. Names may count otherwise. Blank lines part the entries; values can stand above or below the binder they belong to.
What was measured:
Assay in all cases: fluorescence polarisation
[1] = biological target: pSer(2,5) RNAPII CTD di-heptad repeat peptide
[2] = biological target: pSer2 RNAPII CTD di-heptad repeat peptide
[3] = biological target: pSer5 RNAPII CTD di-heptad repeat peptide
[4] = biological target: unphosphorylated form of the RNAPII-CTD (peptide)
[5] = biological target: pTyr1 RNAPII CTD di-heptad repeat peptide

Kd [1]: 23 µM
Kd [2]: 197 µM
Kd [3]: 245 µM
Kd [4]: > 1000 µM
B1: Spt6(1247–1451) (domain or fragment)
chain: AKRTHRVINHPYYFPFNGRQAEDYLRSKERGEFVIRQSSRGDDHLVITWKLDKDLFQHIDIQELEKENPLALGKVLIVDNQKYNDLDQIIVEYLQNKVRLLNEMTSSEKFKSGTKKDVVKFIEDYSRVNPNKSVYYFSLNHDNPGWFYLMFKINANSKLYTWNVKLTNTGYFLVNYNYPSVIQLCNGFKTLLKSNSSKNRMNNYR

fold decrease of binding against WT Spt6(1247–1451) [5]: 2.4 fold
fold decrease of binding against WT Spt6(1247–1451) [2]: 1.2 fold
fold decrease of binding against WT Spt6(1247–1451) [3]: 1.4 fold
B2: R1282A/S1284A Spt6(1247–1451) (domain or fragment)
chain: B1 chain with R36A, S38A

— article PMC3086336
